Measurements: publication PMC7736794

Target: T1, PrimPol (endogenous, OVCAR8), Q96LW4
T1 chain: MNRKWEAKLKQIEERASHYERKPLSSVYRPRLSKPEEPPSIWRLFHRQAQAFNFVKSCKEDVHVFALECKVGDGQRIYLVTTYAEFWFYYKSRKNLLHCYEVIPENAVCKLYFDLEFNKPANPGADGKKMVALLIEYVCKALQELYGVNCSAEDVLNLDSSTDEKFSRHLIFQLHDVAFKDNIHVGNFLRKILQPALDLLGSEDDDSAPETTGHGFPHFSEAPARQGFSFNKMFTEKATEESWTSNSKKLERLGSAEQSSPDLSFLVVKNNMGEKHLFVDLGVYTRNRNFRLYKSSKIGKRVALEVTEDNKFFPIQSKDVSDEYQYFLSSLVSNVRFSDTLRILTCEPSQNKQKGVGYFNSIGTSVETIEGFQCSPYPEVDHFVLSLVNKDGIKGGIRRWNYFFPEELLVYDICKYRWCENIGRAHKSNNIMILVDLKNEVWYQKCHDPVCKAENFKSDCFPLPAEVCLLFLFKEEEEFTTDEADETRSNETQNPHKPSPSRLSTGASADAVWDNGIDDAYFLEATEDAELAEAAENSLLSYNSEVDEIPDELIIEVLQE
Experiment: in situ proximity ligation assay (PLA)
Settings: chain shown with the change, USP36 stably knock-down OVCAR8 cells, read off a plot

- response (PLA puncta / cell) (HU (10 mM) for 4 h, parent: est. 17): 15
- response (PLA puncta / cell) (untreated (Ctrl), parent: est. 11): 15
B1: USP36-wild-type (WT), transfected in OVCAR8, Q9P275 K329R; K338R (protein)
chain: MPIVDKLKEALKPGRKDSADDGELGKLLASSAKKVLLQKIEFEPASKSFSYQLEALKSKYVLLNPKTEGASRHKSGDDPPARRQGSEHTYESCGDGVPAPQKVLFPTERLSLRWERVFRVGAGLHNLGNTCFLNATIQCLTYTPPLANYLLSKEHARSCHQGSFCMLCVMQNHIVQAFANSGNAIKPVSFIRDLKKIARHFRFGNQEDAHEFLRYTIDAMQKACLNGCAKLDRQTQATTLVHQIFGGYLRSRVKCSVCKSVSDTYDPYLDVALEIRQAANIVRALELFVKADVLSGENAYMCAKCKKKVPASKRFTIHRTSNVLTLSLRRFANFSGGRITKDVGYPEFLNIRPYMSQNNGDPVMYGLYAVLVHSGYSCHAGHYYCYVKASNGQWYQMNDSLVHSSNVKVVLNQQAYVLFYLRIPGSKKSPEGLISRTGSSSLPGRPSVIPDHSKKNIGNGIISSPLTGKRQDSGTMKKPHTTEEIGVPISRNGSTLGLKSQNGCIPPKLPSGSPSPKLSQTPTHMPTILDDPGKKVKKPAPPQHFSPRTAQGLPGTSNSNSSRSGSQRQGSWDSRDVVLSTSPKLLATATANGHGLKGNDESAGLDRRGSSSSSPEHSASSDSTKAPQTPRSGAAHLCDSQETNCSTAGHSKTPPSGADSKTVKLKSPVLSNTTTEPASTMSPPPAKKLALSAKKASTLWRATGNDLRPPPPSPSSDLTHPMKTSHPVVASTWPVHRARAVSPAPQSSSRLQPPFSPHPTLLSSTPKPPGTSEPRSCSSISTALPQVNEDLVSLPHQLPEASEPPQSPSEKRKKTFVGEPQRLGSETRLPQHIREATAAPHGKRKRKKKKRPEDTAASALQEGQTQRQPGSPMYRREGQAQLPAVRRQEDGTQPQVNGQQVGCVTDGHHASSRKRRRKGAEGLGEEGGLHQDPLRHSCSPMGDGDPEAMEESPRKKKKKKRKQETQRAVEEDGHLKCPRSAKPQDAVVPESSSCAPSANGWCPGDRMGLSQAPPVSWNGERESDVVQELLKYSSDKAYGRKVLTWDGKMSAVSQDAIEDSRQARTETVVDDWDEEFDRGKEKKIKKFKREKRRNFNAFQKLQTRRNFWSVTHPAKAASLSYRR
